System: Escherichia coli TOP10
Experiment: shrunken log2 fold change of peptide-encoding DNA abundance (4.5 h post-induction vs induction); higher = less antimicrobial activity (less host growth inhibition)
Conditions: time post-induction: 4.5 h; library: site-saturation at positions 5, 18, 19, 20
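Further: peptides expressed intracellularly from a pBAD plasmid library in pooled LB shake-flask culture, induced with 0.3% L-arabinose, DNA abundance read by NGS, three biological replicates, DESeq2 with apeglm shrinkage.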

Point of comparison: RRIRSRPPRLPRPRPRPLCTPRP, “shrunken log2 fold change” value 0.0479. Against it:
- RRIRMRPPRLPRPRPRPCLWPRP — within 0.2 log units, 0.0121
- RRIRDRPPRLPRPRPRPTNFPRP — lower, -0.208
- RRIRFRPPRLPRPRPRPIGTPRP — lower, -0.329
- RRIRMRPPRLPRPRPRPMLDPRP — higher, 0.722
- RRIRSRPPRLPRPRPRPDRHPRP — within 0.2 log units, -0.0205
- RRIRSRPPRLPRPRPRPKMDPRP — within 0.2 log units, 0.232
- RRIRLRPPRLPRPRPRPDDVPRP — within 0.2 log units, -0.00776
- RRIRRRPPRLPRPRPRPWCMPRP — within 0.2 log units, -0.107
- RRIRYRPPRLPRPRPRPICFPRP — lower, -0.332
- RRIRERPPRLPRPRPRPQHHPRP — lower, -0.771
- RRIRMRPPRLPRPRPRPSKSPRP — within 0.2 log units, 0.166
- RRIRTRPPRLPRPRPRPNCLPRP — within 0.2 log units, -0.0709
- RRIRLRPPRLPRPRPRPTMQPRP — within 0.2 log units, -0.0477
- RRIRARPPRLPRPRPRPDVYPRP — within 0.2 log units, 0.152
- RRIRFRPPRLPRPRPRPRMHPRP — within 0.2 log units, -0.0776
- RRIRGRPPRLPRPRPRPLPGPRP — higher, 1.01
- RRIRMRPPRLPRPRPRPCQGPRP — lower, -0.168
- RRIRMRPPRLPRPRPRPSFEPRP — higher, 0.318
- RRIRWRPPRLPRPRPRPFCVPRP — within 0.2 log units, -0.0188
- RRIRTRPPRLPRPRPRPEFCPRP — within 0.2 log units, 0.146
- RRIRYRPPRLPRPRPRPIAFPRP — lower, -0.564
- RRIRFRPPRLPRPRPRPYDVPRP — lower, -0.185
- RRIRIRPPRLPRPRPRPRDVPRP — within 0.2 log units, 0.000408
- RRIRSRPPRLPRPRPRPLDIPRP — within 0.2 log units, 0.00915
- RRIRLRPPRLPRPRPRPGCRPRP — within 0.2 log units, 0.157
- RRIRERPPRLPRPRPRPIGHPRP — lower, -0.244
- RRIRWRPPRLPRPRPRPKFEPRP — within 0.2 log units, 0.2
- RRIRWRPPRLPRPRPRPPQDPRP — higher, 0.267
- RRIRYRPPRLPRPRPRPEQHPRP — within 0.2 log units, -0.0567
- RRIRIRPPRLPRPRPRPNGAPRP — within 0.2 log units, 0.0157
- RRIRSRPPRLPRPRPRPSPVPRP — within 0.2 log units, -0.0362
- RRIRFRPPRLPRPRPRPDTNPRP — lower, -0.208
- RRIRYRPPRLPRPRPRPPTFPRP — lower, -0.457
- RRIRERPPRLPRPRPRPLLMPRP — within 0.2 log units, 0.0107
- RRIRDRPPRLPRPRPRPGSYPRP — within 0.2 log units, -0.0689
- RRIRERPPRLPRPRPRPEQNPRP — within 0.2 log units, 0.139
- RRIRARPPRLPRPRPRPKWCPRP — higher, 0.321
- RRIRVRPPRLPRPRPRPHQAPRP — within 0.2 log units, 0.0697
- RRIRQRPPRLPRPRPRPHAQPRP — higher, 0.384
- RRIRWRPPRLPRPRPRPDVIPRP — within 0.2 log units, -0.118
- RRIRRRPPRLPRPRPRPMIHPRP — within 0.2 log units, -0.0319
- RRIRPRPPRLPRPRPRPKMIPRP — within 0.2 log units, -0.0706
- RRIRFRPPRLPRPRPRPCKPPRP — within 0.2 log units, -0.109
- RRIRTRPPRLPRPRPRPMTFPRP — within 0.2 log units, 0.0754
- RRIRKRPPRLPRPRPRPHNNPRP — lower, -0.244
- RRIRQRPPRLPRPRPRPGPSPRP — within 0.2 log units, 0.242
- RRIRRRPPRLPRPRPRPIDSPRP — within 0.2 log units, -0.0316
- RRIRVRPPRLPRPRPRPRNSPRP — within 0.2 log units, 0.1
- RRIRTRPPRLPRPRPRPVYGPRP — lower, -0.167
- RRIRDRPPRLPRPRPRPWNAPRP — within 0.2 log units, 0.0296
- RRIRLRPPRLPRPRPRPGMFPRP — lower, -0.322
- RRIRLRPPRLPRPRPRPPSGPRP — within 0.2 log units, 0.0718
- RRIRTRPPRLPRPRPRPTYDPRP — lower, -0.311
- RRIRQRPPRLPRPRPRPSYNPRP — lower, -0.723
- RRIRNRPPRLPRPRPRPEDSPRP — within 0.2 log units, -0.0784
- RRIRFRPPRLPRPRPRPKFFPRP — within 0.2 log units, -0.00377
- RRIRVRPPRLPRPRPRPENNPRP — within 0.2 log units, 0.00554
- RRIRKRPPRLPRPRPRPYRAPRP — within 0.2 log units, -0.117
- RRIRPRPPRLPRPRPRPCDPPRP — lower, -0.575
- RRIRCRPPRLPRPRPRPMWSPRP — within 0.2 log units, -0.147
- RRIRDRPPRLPRPRPRPVTSPRP — lower, -0.2
- RRIRTRPPRLPRPRPRPMKAPRP — within 0.2 log units, 0.0679
- RRIRKRPPRLPRPRPRPLPLPRP — higher, 0.387
- RRIRQRPPRLPRPRPRPCIQPRP — within 0.2 log units, -0.118
- RRIRSRPPRLPRPRPRPRWVPRP — within 0.2 log units, 0.218
- RRIRIRPPRLPRPRPRPMKFPRP — lower, -0.387
- RRIRVRPPRLPRPRPRPSYDPRP — lower, -0.576
- RRIRFRPPRLPRPRPRPSKEPRP — higher, 1.3
- RRIRWRPPRLPRPRPRPGAIPRP — within 0.2 log units, -0.096
- RRIRGRPPRLPRPRPRPGQYPRP — within 0.2 log units, -0.0691
- RRIRIRPPRLPRPRPRPFRQPRP — within 0.2 log units, 0.0326
- RRIRMRPPRLPRPRPRPLNLPRP — within 0.2 log units, -0.0841
- RRIRSRPPRLPRPRPRPVGTPRP — within 0.2 log units, -0.0487
- RRIRTRPPRLPRPRPRPPMHPRP — within 0.2 log units, 0.141

From the supplement of paper PMC9112550, “Optimization of the antimicrobial peptide Bac7 by deep mutational scanning” (BMC Biology, 2022)
